Assays:
[1] = target: trypsin-activated DI-DIII of Vip3Aa (DI-DIII^act) (Bacillus thuringiensis (Bt 9816C)); test: SEC
[2] = target: Vip3Aa protoxin (full-length vegetative insecticidal protein Vip3Aa) (Bacillus thuringiensis (Bt 9816C)); test: SEC + other: dynamic light scattering
[3] = target: Vip3Aa Domain I-Domain III truncation variant (Bacillus thuringiensis (Bt 9816C)); test: SEC + other: protein thermal shift

trypsin-activated DI-DIII of Vip3Aa (DI-DIII^act) (complex)
stoichiometry N [1]: 4

Vip3Aa protoxin (full-length vegetative insecticidal protein Vip3Aa) (natural protein)
stoichiometry N [2]: 4

Vip3Aa Domain I-Domain III truncation variant (domain or fragment)
stoichiometry N [3]: 4

Source: article doi:10.1101/2022.07.14.500127
